The source of these data is patent publication US20240317847A1 (Bayer, published 2024).

One assay concerns the target T1, human IL-11 (human, UniProt P20809 22-199).
T1 construct: Invigate recombinant protein; biotinylated when immobilized in the Di-complex ELISA; also called hIL11; hIL-11
T1 sequence: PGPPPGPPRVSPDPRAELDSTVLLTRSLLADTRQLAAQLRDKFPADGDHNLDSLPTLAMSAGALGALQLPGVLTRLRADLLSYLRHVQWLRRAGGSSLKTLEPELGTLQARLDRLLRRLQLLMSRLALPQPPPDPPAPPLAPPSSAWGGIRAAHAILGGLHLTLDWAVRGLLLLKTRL
Description: Tri-complex ELISA, hIL-11 + mIL-11Ra-Fc + hgp130-Fc, inhibition of complex formation. On the procedure:
In the Tri-complex ELISA format IL-11 antibodies are tested for their ability to inhibit the formation of a complex consisting of murine or human gp130-Fc fusion protein, with murine or human IL-11, and a murine IL11RA-Fc fusion protein. The assay format was adapted according to FIG. 18 (a, b), depending on whether murine or human IL-11 IgG antibodies were tested.
(§1) IgG converted antibodies were subjected to the experimental assay procedure described in Example 19 and IC50 [M], respectively efficacy (%) were calculated accordingly.
(An ELISA detects its analyte on a solid surface through an enzyme-linked reagent.)

For a further assay, the target named is T2, murine IL-11 (mouse, UniProt P47873 22-199).
T2 construct: Invigate recombinant protein; biotinylated when immobilized in the Di-complex ELISA; also called mIL11; mIL-11
T2 sequence: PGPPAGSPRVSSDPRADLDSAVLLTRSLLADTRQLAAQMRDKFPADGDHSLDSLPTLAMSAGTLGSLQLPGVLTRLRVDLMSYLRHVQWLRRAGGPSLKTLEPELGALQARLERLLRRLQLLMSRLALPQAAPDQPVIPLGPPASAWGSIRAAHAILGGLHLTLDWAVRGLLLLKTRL
Description: Tri-complex ELISA, mIL-11 + mIL-11Ra-Fc + mgp130-Fc, inhibition of complex formation. On the procedure:
In a first step, 25 μl of goat anti human IgG (Sigma, #12136), diluted 1:1000 in coating buffer (Candor, #121125) was coated on the plate at 4° C. overnight. Next day, the plate was washed one time with 50 μl PBST and then blocked with 50 μl SmartBlock (Candor, #113125) for one hour at room temperature (RT). […] After three additional washes of the coated and blocked microtiter plate with PBS-T, 25 μl of each mixture were added and the assay plate was incubated for one hour at room temperature. After three additional washes, anti-mouse-gp130 biotinylated antibody (R&D, #BAF468) or anti-human gp130 biotinylated antibody (R&D, #BAF228), both 1:1000 in 10% SmartBlock PBS-T, was added and incubated for 1 hour at RT. After three additional washes, a Streptavidin-Peroxidase conjugate (Sigma, #S5512) 1:1000 in SmartBlock PBS-T was added and incubated for one hour at room temperature. After a final three washes, AmplexRed (Fisher Scientific, A12222), 1/1000 in PBS, 0,003% H₂O₂, was added as substrate and incubated for 15 min at RT in the dark. Then, the fluorescence was measured with a plate reader at 535/595 nm. Signals from dose responses were used to calculate IC50 values using GraphPad Prism software. Efficacy was calculated as [(signal measured at lowest antibody concentration−signal measured at the highest antibody concentration)×100] divided by (signal measured at lowest antibody concentration−signal measured in the absence of antibody at an IL11 concentration of 8.2E-11 [M]).
as §1

A further assay addresses T3, human IL2Ra (human, UniProt P01589 22-240, limits assumed).
T3 construct: coated on the ELISA plate; also called IL-2 receptor alpha
T3 sequence (looked up): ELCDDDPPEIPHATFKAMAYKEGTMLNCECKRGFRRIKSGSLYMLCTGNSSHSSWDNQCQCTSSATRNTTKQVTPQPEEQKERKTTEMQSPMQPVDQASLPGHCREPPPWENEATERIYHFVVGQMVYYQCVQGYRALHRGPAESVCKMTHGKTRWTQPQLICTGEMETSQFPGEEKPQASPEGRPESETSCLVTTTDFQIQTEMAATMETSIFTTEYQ
Description: ELISA on coated IL2Ra, signal ratio to isotype control TPP-10159 at 3.3E-7 M antibody. On the procedure: IL2RA (Peprotech, Germany, #200-02RC) was coated at 1 or 0 μg/ml (buffer only control) in 30 μl coating buffer (Candor, #113500) per well on a 384 well microtiter plate (Maxisorb, Nunc, #460518) over night at 4-8° C. After two washes with 50 μl/well washing buffer (PBS+0.05% Tween, pH 7.4), the plates were incubated for two hours at room temperature with 50 μl/well SmartBlock (Candor, #113500). After blocking, the plates were washed three times with washing buffer. Then, a dilution series of the respective antibody (1E-7 [M] down to 2E-13 [M]) in PBS+0.05% Tween, 10% SmartBlock were added in 30 μl to the microtiter plate and incubated for 90 min at room temperature. After three additional washes, 30 μl anti mouse IgG HRP-conjugated antibody (Biotechne, HAF007), diluted 1:1000 in PBS+0.05% Tween (pH 7.4), were added per well and incubated for one hour. After three additional washes, a mixture of Amplex red (Invitrogen, #12222, 10 mM stock solution in DMSO) 1:1000 diluted in PBS and H2O2 (30%, Merck, #107209)) diluted 1:10000 in PBS were added as substrate with 30 μl per well and incubated for 20 min in the dark. Relative fluorescence was measured with a microtiter plate reader at 535/590 nm.
IgG converted antibodies TPP-were tested for binding to IL2Ra as described in Example 20. The ratios of the signals obtained at an antibody concentration of 3.3E-7 [M] for IgG converted antibody versus the isotype control TPP-10159 were calculated and are shown in Table E22.

Assay [1] concerns the target T4, human IL2Ra (Peprotech, Germany, #200-02RC) (human, UniProt P01589 22-240).
T4 construct: Coated on the ELISA plate; also called hIL2Ra; IL-2 receptor alpha
T4 sequence (looked up): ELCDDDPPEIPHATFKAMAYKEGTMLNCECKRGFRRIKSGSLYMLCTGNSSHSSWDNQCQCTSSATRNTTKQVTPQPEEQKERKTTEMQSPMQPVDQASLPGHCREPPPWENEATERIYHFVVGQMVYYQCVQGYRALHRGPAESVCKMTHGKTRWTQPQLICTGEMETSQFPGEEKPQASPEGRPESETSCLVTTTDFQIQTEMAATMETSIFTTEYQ
Put plainly: direct binding ELISA on coated IL2Ra.

B1: TPP-29523 (antibody, mouse IgG1)
heavy: QVQLVESGGGVVQPGRSLRLSCAASGFTFSHYDMHWVRQAPGKGLEWVAVISYEGSVKFYADSVKGRFTISRDNSKNTLYLQMNSLRAEDTAVYYCARTPGFHFDYWGQGTLVTVSSAKTTPPSVYPLAPGSAAQTNSMVTLGCLVKGYFPEPVTVTWNSGSLSSGVHTFPAVLQSDLYTLSSSVTVPSSTWPSETVTCNVAHPASSTKVDKKIVPRDCGCKPCICTVPEVSSVFIFPPKPKDVLTITLTPKVTCVVVDISKDDPEVQFSWFVDDVEVHTAQTQPREEQFNSTFRSVSELPIMHQDWLNGKEFKCRVNSAAFPAPIEKTISKTKGRPKAPQVYTIPPPKEQMAKDKVSLTCMITDFFPEDITVEWQWNGQPAENYKNTQPIMDTDGSYFVYSKLNVQKSNWEAGNTFTCSVLHEGLHNHHTEKSLSHSPGK
light: QSVLTQPPSASGTPGQRVTISCSGSSSNIGSNYVNWYQQLPGTAPKLLIYYDDLRPSGVPDRFSGSKSGTSASLAISGLRSEDEADYYCSAWDDSLSGVVFGGGTKLTVLGQPKSSPSVTLFPPSSEELETNKATLVCTITDFYPGVVTVDWKVDGTPVTQGMETTQPSKQSNNKYMASSYLTLTARAWERHSSYSCQVTHEGHTVEKSLSRADCS
notes: mIgG1, Lambda
By IC50 is commonly meant the midpoint of a concentration-inhibition curve. As for B1, in the assay with human IL-11, the “Efficacy (%)” value is 84.3% and the IC50 was determined as 2.1 nM. Moreover, in the assay with murine IL-11, the “Efficacy (%)” value came to 84.3% and the IC50 was found to be 0.12 nM. Moreover, the “Antibody/Isotype Control Ratio of IL-2Ra Binding Signals” value with human IL2Ra was determined as 1.2 ratio.

B2: TPP-29697 (bispecific antibody, IgG1)
chain 1: QVQLVESGGGVVQPGRSLRLSCAASGFTFSHYDMHWVRQAPGKGLEWVAVISYHGSVKFYADSVKGRFTISRDNSKNTLYLQMNSLRAEDTAVYYCARTPGFHFDYWGQGTLVTVSSGGGGSGGGGSGGGGSQSVLTQPPSASGTPGQRVTISCSGSSSNIGSNYVSWYQQLPGTAPKLLIYYDDLRPSGVPDRFSGSKSGTSASLAISGLRSEDEADYYCSAWDDSLSGVVFGGGTKLTVLGGGGSGGGGSGGGGSGVECPPCPAPPVAGPSVFLFPPKPKDTLMISRTPEVTCVVVGVSHEDPEVKFNWYVDGVEVHNAKTKPREEQYNSTYRVVSVLTVLHQDWLNGKEYKCKVSNKQLPSPIEKTISKAKGQPREPQVYTLPPCRDELTKNQVSLWCLVKGFYPSDIAVEWESNGQPENNYKTTPPVLDSDGSFFLYSKLTVDKSRWQQGNVFSCSVMHEALHNHYTQKSLSLSPGK
chain 2: EVQLLESGGGLVQPGGSLRLSCAASGFTFSSYGMHWVRQAPGKGLEWVAVISYDGSYKYYADSVKGRFTISRDNSKNTLYLQMNSLRAEDTAVYYCAAGVPDYWGQGTLVTVSSGGGGSGGGGSGGGGSQSVLTQPPSASGTPGQRVTISCSGSSSNIGSDYDVHWYQQLPGTAPKLLIYSNEERPSGVPDRFSGSKSGTSASLAISGLRSEDEADYYCSAWDSSLSGPVFGGGTKLTVLGGGGSGGGGSGGGGSGVECPPCPAPPVAGPSVFLFPPKPKDTLMISRTPEVTCVVVGVSHEDPEVKFNWYVDGVEVHNAKTKPREEQYNSTYRVVSVLTVLHQDWLNGKEYKCKVSNKQLPSPIEKTISKAKGQPREPQVCTLPPSRDELTKNQVSLSCAVKGFYPSDIAVEWESNGQPENNYKTTPPVLDSDGSFFLVSKLTVDKSRWQQGNVFSCSVMHEALHNHYTQKSLSLSPGK
notes: scFv-kih-hIgG1 with Fc-silencing mutations; arms from TPP-29519 and TPP-29528
With B2, the binding result in assay [1] is “no binding (tested: 1E-07 [M] antibody)”.

B3: TPP-23580 (antibody, mouse IgG1, kappa)
heavy: EVQLVQSGAEVKKPGASVKISCKASGYTFTDYNMDWVKQAPGQRLEWIGDINPHNGGPIYNQKFTGRATLTVDKSASTAYMELSSLRSEDTAVYYCARGELGHWYFDVWGQGTTVTVSSAKTTPPSVYPLAPGSAAQTNSMVTLGCLVKGYFPEPVTVTWNSGSLSSGVHTFPAVLQSDLYTLSSSVTVPSSTWPSETVTCNVAHPASSTKVDKKIVPRDCGCKPCICTVPEVSSVFIFPPKPKDVLTITLTPKVTCVVVDISKDDPEVQFSWFVDDVEVHTAQTQPREEQFNSTFRSVSELPIMHQDWLNGKEFKCRVNSAAFPAPIEKTISKTKGRPKAPQVYTIPPPKEQMAKDKVSLTCMITDFFPEDITVEWQWNGQPAENYKNTQPIMDTDGSYFVYSKLNVQKSNWEAGNTFTCSVLHEGLHNHHTEKSLSHSPGK
light: DIVLTQSPASLALSPGERATLSCRASKSVSTSGYSYIHWYQQKPGQPPRLLIYLASNLDSGVPARFSGSGSGTDFTLNIHPLEEEDFATYYCQHSRDLPPTFGQGTKLEIKRADAAPTVSIFPPSSEQLTSGGASVVCFLNNFYPKDINVKWKIDGSERQNGVLNSWTDQDSKDSTYSMSSTLTLTKDEYERHNSYTCEATHKTSTSPIVKSFNRNEC
notes: also called BSN 3C6 2.2-2.1-mIgG1Kappa
Regarding B3, the binding result in assay [1] was “no binding (tested: 3.3E-7 [M] antibody)”.

B4: TPP-29603 (bispecific antibody, IgG1)
chain 1: QVQLVESGGGVVQPGRSLRLSCAASGFTFSHYDMHWVRQAPGKGLEWVAVISYHGSVKFYADSVKGRFTISRDNSKNTLYLQMNSLRAEDTAVYYCARTPGFHFDYWGQGTLVTVSSGGGGSGGGGSGGGGSQSVLTQPPSASGTPGQRVTISCSGSSSNIGSNYVSWYQQLPGTAPKLLIYYDDLRPSGVPDRFSGSKSGTSASLAISGLRSEDEADYYCSAWDDSLSGVVFGGGTKLTVLGGGGSGGGGSGGGGSGVECPPCPAPPVAGPSVFIFPPKPKDVLTITLTPKVTCVVVDISKDDPEVQFSWFVDDVEVHTAQTQPREEQFNSTFRSVSELPIMHQDWLNGKEFKCRVNSAAFPAPIEKTISKTKGRPKAPQVYTIPPCKEQMAKDKVSLWCMITDFFPEDITVEWQWNGQPAENYKNTQPIMDTDGSYFVYSKLNVQKSNWEAGNTFTCSVLHEGLHNHHTEKSLSHSPGK
chain 2: EVQLLESGGGLVQPGGSLRLSCAASGFTFSSYGMHWVRQAPGKGLEWVAVISYDGSYKYYADSVKGRFTISRDNSKNTLYLQMNSLRAEDTAVYYCAAGVPDYWGQGTLVTVSSGGGGSGGGGSGGGGSQSVLTQPPSASGTPGQRVTISCSGSSSNIGSDYDVHWYQQLPGTAPKLLIYSNEERPSGVPDRFSGSKSGTSASLAISGLRSEDEADYYCSAWDSSLSGPVFGGGTKLTVLGGGGSGGGGSGGGGSGVECPPCPAPPVAGPSVFIFPPKPKDVLTITLTPKVTCVVVDISKDDPEVQFSWFVDDVEVHTAQTQPREEQFNSTFRSVSELPIMHQDWLNGKEFKCRVNSAAFPAPIEKTISKTKGRPKAPQVCTIPPPKEQMAKDKVSLSCAITDFFPEDITVEWQWNGQPAENYKNTQPIMDTDGSYFVVSKLNVQKSNWEAGNTFTCSVLHEGLHNHHTEKSLSHSPGK
notes: scFv-kih-mIgG1; arms from TPP-29519 and TPP-29528
Turning to B4, the binding result in assay [1] is “no binding (tested: 1E-07 [M] antibody)”.
